Biological target: T1, endogenous human iRhom1 (RH-30 cells) (human, UniProt Q96CC6 1-855)
T1 construct: RH-30 cells are described as endogenously negative for iRhom2 but endogenously expressing iRhom1; also called iRhom1 endogenously expressed by RH-30 cells
T1 sequence: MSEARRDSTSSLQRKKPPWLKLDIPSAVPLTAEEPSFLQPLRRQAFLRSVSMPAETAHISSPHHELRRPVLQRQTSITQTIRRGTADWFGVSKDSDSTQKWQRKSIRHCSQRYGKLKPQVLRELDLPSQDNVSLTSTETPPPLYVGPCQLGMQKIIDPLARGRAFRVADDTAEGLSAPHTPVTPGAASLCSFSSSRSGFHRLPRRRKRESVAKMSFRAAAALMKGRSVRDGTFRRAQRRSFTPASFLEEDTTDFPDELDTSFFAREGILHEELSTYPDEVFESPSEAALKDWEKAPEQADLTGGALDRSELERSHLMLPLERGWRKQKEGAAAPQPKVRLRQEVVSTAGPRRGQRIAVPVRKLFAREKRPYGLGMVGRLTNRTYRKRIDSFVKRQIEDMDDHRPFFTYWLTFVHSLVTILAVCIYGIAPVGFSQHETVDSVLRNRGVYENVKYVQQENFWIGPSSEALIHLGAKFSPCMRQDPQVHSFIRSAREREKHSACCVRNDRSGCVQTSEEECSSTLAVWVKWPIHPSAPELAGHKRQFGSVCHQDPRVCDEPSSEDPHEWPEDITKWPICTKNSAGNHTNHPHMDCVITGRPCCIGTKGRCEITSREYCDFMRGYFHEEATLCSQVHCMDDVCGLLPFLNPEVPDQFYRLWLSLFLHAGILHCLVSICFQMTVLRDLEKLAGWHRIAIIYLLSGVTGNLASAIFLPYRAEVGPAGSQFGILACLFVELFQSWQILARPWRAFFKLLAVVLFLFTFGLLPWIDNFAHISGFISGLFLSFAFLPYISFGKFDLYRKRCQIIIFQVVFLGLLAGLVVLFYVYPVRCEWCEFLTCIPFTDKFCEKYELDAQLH
Experiment: FACS on RH-30 cells (endogenously negative for iRhom2, endogenously expressing iRhom1)
Procedure: In brief, human RPMI-8226 cells (Deutsche Sammlung von Mikroorganismen und Zellkulturen, Germany), THP-1 cells (American Type Culture Collection, USA) and RH-30 cells (Deutsche Sammlung von Mikroorganismen und Zellkulturen, Germany) were harvested with 10 mM EDTA in PBS, washed and resuspended in FACS buffer (PBS, 3% FBS, 0.05% sodium azide), and seeded in Nunc U-bottom 96-well plates (Thermo Fisher Scientific, USA) at approximately 2×10⁵ cells per well. In order to pellet cells and remove supernatants, the plates were centrifuged at 1,500 rpm and 4° C. for 3 minutes. For primary staining, cells were resuspended in 100 μl per well of either FACS buffer alone (controls) or […] of the antibodies of the invention in FACS buffer and incubated on ice for 1 hour. Afterwards, plates were centrifuged at 1,500 rpm and 4° C. for 3 minutes and washed twice with 200 μl per well of FACS buffer. For secondary staining, cells were spun down and resuspended in 100 μl per well of PE-conjugated goat anti-human IgG F(ab′)2 detection fragment (Dianova, Germany) diluted 1:100 in FACS buffer. Protected from light, the cell suspensions were incubated on ice for 1 hour. […] Finally, cells were resuspended in 150 μl per well of FACS buffer and analyzed using a BD Accuri™ C6 Plus flow cytometer (Becton Dickinson, Germany).

B1: humanized antibody 42-B-02 (antibody, V domains shown)
VH: QVTLRESGPALVKPTQTLTLTCTFSGFSLSTFGRGVGWIRQPPGKALEWLAHIWWDDEKYYNSALKSRLTISKDTSKNQVVLTITNMDPVDTATYYCARIQNYGSNYWYFDVWGQGTLVTVSS
VL: AIQLTQSPSSLSASVGDRVTITCRASSRISYMFWYQQKPGKAPKVLIYDTSNLASGVPSRFSGSGSGTDYTLTISSLQPEDFATYYCQQWNSYPLTFGQGTKLEIK
notes: Tested as whole humanized antibody from transient expression of heavy chain/kappa light chain pairs in CHO cells, detected with anti-human IgG; the general methods speak of human IgG1/Kappa; also called clone 42-B-02
  binding result: no binding (tested: 3 µg/ml)

Source: patent US20240166767A1 (SCIRHOM, published 2024)
